Data: patent US20030166027A1, “Compositions, test kits and methods for detecting helicobacter pylori” (priority 2002, published 2003)

Tests used:
[1] = tested on: specific serum IgG antibodies in sera from patients diagnosed with a H. pylori infection; experiment: Quantitative Western-blot analysis (integrated optical density) of patient sera on H. pylori whole cell lysate antigens; type: binding, human; details: for average titer of specific antibodies / reduction of average titer: average of all strains (FIG. 4)
[2] = tested on: sera from H. pylori infected patients; experiment: Immunoblot analysis of whole cell lysates with sera from H. pylori infected patients; type: binding, human; details: one serum of an infected patient (HS#0 12, table 1)
Procedure: The protein content of the bacterial lysates was determined by the method according to Lowry (Lowry et al., 1951) with bovine serum albumin as a standard. The lysates were dried in a speedVac concentrator. Afterwards the pellets were suspended in gel sample buffer (4% SDS, 12% glycerin, 4% β-mercaptoethanol, 0.01% Serva Blue G250 in 50 mM Tris/HCl pH 6.8) and boiled for 10 min. H. pylori and C. jejuni lysates were separated on 1.0 or 1.5 mm 7.5-16.5% SDS-tricine gradient gels (Schaegger and v. Jagow, 1987). Therefore a 7.5% and a 16.5% acrylamide solution for the separating gel and a 4% acrylamide solution for the stacking gel were prepared according to the scheme presented in table 3. Using a gradient-mixer the gel was poured slowly, but with continuous flow between the glass plates of the gel-sandwich. The separating gel was overlaid with deonized H2O and allowed to polymerize for 1 hr. Afterwards the water was removed, APS and TEMED was added to the stacking gel solution that was poured on top of the separating gel. A comb with the appropriate number of sample pockets was inserted and removed after polymerisation for 1 hr. The gel-sandwich was placed in an electrophoresis chamber half filled with bottom running buffer (0.2 M Tris-HCI, pH 8.9). […] The protein pattern after electrophoresis was determined by Silver staining (Heukeshoven, 1985) or Coomassie blue staining. […]

[3] = antigens from Hp02 (FIG. 3), sera 3 months post therapy
[4] = antigens from Hp02 (FIG. 3), sera 5 months post therapy
[5] = antigens from Hp02 (FIG. 3), sera before therapy, set as 100%
[6] = antigens from Hp08 (FIG. 2), sera 3 months post therapy
[7] = antigens from Hp08 (FIG. 2), sera 5 months post therapy
[8] = antigens from Hp08 (FIG. 2), sera before therapy, set as 100%
[9] = antigens from Hp504, first experiment (FIG. 1A), sera 3 months post therapy
[10] = antigens from Hp504, first experiment (FIG. 1A), sera 5 months post therapy
[11] = antigens from Hp504, first experiment (FIG. 1A), sera of 9 patients before therapy, set as 100%
[12] = antigens from Hp504, second experiment (FIG. 1B), sera 3 months post therapy
[13] = antigens from Hp504, second experiment (FIG. 1B), sera 5 months post therapy
[14] = antigens from Hp504, second experiment (FIG. 1B), sera before therapy, set as 100%
[15] = 3 months after eradication treatment
[16] = 5 months after end of treatment

B1: Omp18-peptido-glycan associated lipoprotein precursor (protein)
chain: MKRSSVFSFLVAFLLVAGCSHKMDNKTVAGDVSAKTVQTAPVTTEPAPEKEEPKQEPAPVVEEKPAVESGTIIASIYFDFDKYEIKESDQETLDEIVQKAKENHMQVLLEGNTDEFGSSEYNQALGVKRTLSVKNALVIKGVEKDMIKTISFGETKPKCAQKTRECYKENRRVDVKLMK
notes: 30 kd H. pylori antigen band in whole cell lysate, identified as Omp18
- % IOD [1, 3]: 50.71 +/− 11.48%
- % IOD [1, 4]: 21.56 +/− 6.44%
- % IOD [1, 5]: 100%
- % IOD [1, 6]: 62.53 +/− 10.32%
- % IOD [1, 7]: 40.77 +/− 4.45%
- % IOD [1, 8]: 100%
- % IOD [1, 9]: 32.08 +/− 6.48%
- % IOD [1, 10]: 20.71 +/− 12.72%
- % IOD [1, 11]: 100%
- % IOD [1, 12]: 53.58%
- % IOD [1, 13]: 41.28%
- % IOD [1, 14]: 100%
- average titer of specific antibodies [1, 15]: 49.73%
- reduction of average titer [1, 15]: 50.27%
- average titer of specific antibodies [1, 16]: 31.08%
- reduction of average titer [1, 16]: 68.92%

B2: RPL7/L12 50S ribosomal protein L7/L12 (protein)
chain: MNISVNPYLMAVVFVVFVLLLWAMNVWVYRPLLAFMDNRQAEIKDSLAKIKTDNAQSVEIGHQIEALLKEAAEKRREIIAEAIQKATESYDAVIKQKENELNQEFEAFAKQLQNEKQALKEQLQAQMPVFEDELNKRVAMGLGS
notes: 15 kd H. pylori antigen band in whole cell lysate, identified as RPL7/L12
- % IOD [1, 3]: 36.29 +/− 14.99%
- % IOD [1, 4]: 11.39 +/− 4.27%
- % IOD [1, 5]: 100%
- % IOD [1, 6]: 28.60 +/− 13.85%
- % IOD [1, 7]: 9.96 +/− 4.99%
- % IOD [1, 8]: 100%
- % IOD [1, 9]: 37.86 +/− 8.98%
- % IOD [1, 10]: 15.37 +/− 6.68%
- % IOD [1, 11]: 100%
- % IOD [1, 12]: 46.17 +/− 16.87%
- % IOD [1, 13]: 19.77 +/− 11.11%
- % IOD [1, 14]: 100%
- average titer of specific antibodies [1, 15]: 31.61%
- reduction of average titer [1, 15]: 68.39%
- average titer of specific antibodies [1, 16]: 14.12%
- reduction of average titer [1, 16]: 85.88%
- reaction with serum HS#0 12 [2]: did not react

B3: HpaA-neuraminyl-lactose-hemagglutinin precursor (protein)
chain: MKKGSLAIVLGSLLASGAFYTALADGMPAKQQHNNTGESVELHFHYPIKGKQEPKNSHLVVLIEPKIEINKVIPESYQKEFEKSLFLQLSSFLERKGYSVSQFKDASEIPQDIKEKALLVLRMDGNVAILEDIVEESDALSEEKVIDMSSGYLNLNFVEPKSEDIIHSFGIDVSKIKAVIERVELRRTNSGGFVPKTFVHRIKETDHDQAIRKIMNQAYHKVMVHITKELSKKHMEHYEKVSSEMKKRK
notes: 32 kd H. pylori antigen band in whole cell lysate, identified as HpaA
- % IOD [1, 3]: 32.30 +/− 13.97%
- % IOD [1, 4]: 8.70 +/− 3.2%
- % IOD [1, 5]: 100%
- % IOD [1, 6]: 48.11 +/− 8.15%
- % IOD [1, 7]: 21.06 +/− 8.01%
- % IOD [1, 8]: 100%
- % IOD [1, 9]: 41.61 +/− 9.25%
- % IOD [1, 10]: 15.15 +/− 4.20%
- % IOD [1, 11]: 100%
- % IOD [1, 12]: 32.15%
- % IOD [1, 13]: 27.2%
- % IOD [1, 14]: 100%
- average titer of specific antibodies [1, 15]: 38.5%
- reduction of average titer [1, 15]: 61.5%
- average titer of specific antibodies [1, 16]: 18.03%
- reduction of average titer [1, 16]: 81.97%

B4: HP0596 a hypothetical protein (protein)
chain: MLEKSFLKSKQLFLCGLGVLMLQACTCPNTSQRNSFLQDVPYWMLQNRSEYITQGVDSSHIVDGKKTEEIEKIATKRATIRVAQNIVHKLKEAYLSKTNRIKQKITNEMFIQMTQPIYDSLMNVDRLGIYINPNNEEVFALVRARGFDKDALSEGLHKMSLDNQAVSILVAKVEEIFKDSVNYGDVKVPIAM
notes: 23 kd H. pylori antigen band in whole cell lysate, identified as HP0596
- % IOD [1, 3]: 35.86 +/− 11.88%
- % IOD [1, 4]: 13.51 +/− 5.02%
- % IOD [1, 5]: 100%
- % IOD [1, 6]: 23.05 +/− 7.53%
- % IOD [1, 7]: 11.36 +/− 4.45%
- % IOD [1, 8]: 100%
- % IOD [1, 9]: 33.88 +/− 10.59%
- % IOD [1, 10]: 23.81 +/− 7.83%
- % IOD [1, 11]: 100%
- % IOD [1, 12]: 52.37 +/− 12.72%
- % IOD [1, 13]: 34.77 +/− 9.61%
- % IOD [1, 14]: 100%
- average titer of specific antibodies [1, 15]: 36.29%
- reduction of average titer [1, 15]: 63.71%
- average titer of specific antibodies [1, 16]: 28.87%
- reduction of average titer [1, 16]: 79.13%
